Laboratory results published in the supplement of paper PMC10126150.
± gives the standard deviation of the averaged measurements.

Test system: ATP
Experiment: switch fluorescence ratio, 500 uM ATP over buffer (Cy3 cluster intensity, sum of 5 cycles each) (fold (ratio)); higher = stronger signal-on switching upon ATP binding; sequences stand for … in TCGTCGGCAGCGTCAGATGTGTATAAGAGACAGTTTTTTTTTTTTTTTTTTTTTTTTT…TC
Details: aptamer strand: ATP DNA aptamer (quencher-CACCTGGGGGAGTATTGCGGAGGAAGG + anchor), 100 nM annealed; ATP concentration: 500 uM
How it was run: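 Cy3-labelled switching-strand clusters on a modified Illumina MiSeq flow-cell were annealed to 100 nM quencher-labelled ATP aptamer and imaged first in selection buffer, then after 15 min with 500 uM ATP at 22 °C. NaOH stripping and re-annealing separated each of five buffer/ATP cycles, and clusters outside 100-1000 RFU were excluded. The fluorescence ratio sums target-cycle Cy3 intensity over buffer-cycle Cy3 intensity per cluster and averages it per switch-domain sequence.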
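Also: ATP exposure 15 min at 22 °C before imaging.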

In the case of TTAAACTGGT, the switch fluorescence ratio is reported as 1.04 ± 0.034.

With AGGGTTGGGA the switch fluorescence ratio was 0.9962 ± 0.0068.

Sequence GGGTTTGGCT has a switch fluorescence ratio of 1.01 ± 0.029.

CAGGGAGGAC gave a switch fluorescence ratio of 1.01 ± 0.013.

Work on ATAAGTCCGA yielded a switch fluorescence ratio of 0.99 ± 0.026.

Sequence GGAATCATGG has a switch fluorescence ratio of 0.996 ± 0.046.

Sequence TAGAATACTT has a switch fluorescence ratio of 0.996 ± 0.016.

AATTTTAGGT gave a switch fluorescence ratio of 0.959 ± 0.015.

Work on CGGGGGATGC yielded a switch fluorescence ratio of 1.05 ± 0.036.

TTTGATTTAG showed a switch fluorescence ratio of 0.989 ± 0.026.

With TCTAGTCGAA the switch fluorescence ratio was 1.02 ± 0.036.

With GGAAAGATGT the switch fluorescence ratio was 1.01 ± 0.027.

Work on CCAAAAGGCA yielded a switch fluorescence ratio of 1.0416 ± 0.00044.

TAGTGATACG showed a switch fluorescence ratio of 0.986 ± 0.05.

With GATGGGGCTG the switch fluorescence ratio was 1.02 ± 0.062.

With CAGTTGCCAG the switch fluorescence ratio was 0.953 ± 0.019.

For ACATTTTCGT, the switch fluorescence ratio was 0.991 ± 0.032.

With ATTAGACTTG the switch fluorescence ratio was 1.01 ± 0.065.

Work on ATGGGGGTAT yielded a switch fluorescence ratio of 0.987 ± 0.019.

For GTGGGCGCCG, the switch fluorescence ratio was 0.987 ± 0.023.

GAAGTTTGAT showed a switch fluorescence ratio of 0.9867 ± 0.0011.

With TTGGGGTAAC the switch fluorescence ratio was 1.009 ± 0.01.

TAATGTTTAG showed a switch fluorescence ratio of 0.99019 ± 0.00022.

Sequence TTTTGATGAT has a switch fluorescence ratio of 1.02 ± 0.013.

CGAACTGCGT gave a switch fluorescence ratio of 1.02 ± 0.034.

TAGTTCGGGG was tested, and the switch fluorescence ratio was 1.01 ± 0.024.

Sequence CAGACCGGTT has a switch fluorescence ratio of 0.996 ± 0.035.

In the case of GGGTTTCACG, the switch fluorescence ratio is reported as 0.983 ± 0.023.

For GGTATGTAGG, the switch fluorescence ratio was 0.978 ± 0.012.

Sequence ATAGTCAGTA has a switch fluorescence ratio of 1.01 ± 0.019.

With CTCTAATATC the switch fluorescence ratio was 1.47 ± 0.091.

For GGGAAAGGGC, the switch fluorescence ratio was 0.961 ± 0.021.

For AATTGGCCGG, the switch fluorescence ratio was 0.989 ± 0.011.

Work on ATTTTTAGCT yielded a switch fluorescence ratio of 1.02 ± 0.031.

Work on AAATGATAAG yielded a switch fluorescence ratio of 0.998 ± 0.021.

Work on GGGGGAAATA yielded a switch fluorescence ratio of 0.9815 ± 0.0055.

Work on CTAGGGGTTT yielded a switch fluorescence ratio of 1 ± 0.034.

TTTGATAAAA showed a switch fluorescence ratio of 0.972 ± 0.039.

Sequence GGGAAAAATA has a switch fluorescence ratio of 1.24 ± 0.51.

ATTTTGTCTT showed a switch fluorescence ratio of 1.02 ± 0.019.

With GAGTGAGTCG the switch fluorescence ratio was 0.981 ± 0.022.

CGGGGATGGC showed a switch fluorescence ratio of 0.979 ± 0.011.

TTCGCCGGTT was tested, and the switch fluorescence ratio was 1.02 ± 0.0021.

Sequence GGGGGTCGAC has a switch fluorescence ratio of 0.996 ± 0.043.

TCGGTCGTGC was tested, and the switch fluorescence ratio was 1.03 ± 0.034.

For GGGTACGGAT, the switch fluorescence ratio was 1.04 ± 0.016.

GAGCTTTTGA was tested, and the switch fluorescence ratio was 0.971 ± 0.04.

TCGCGAGAGC gave a switch fluorescence ratio of 1.004 ± 0.0057.

For GGGTTAAAAC, the switch fluorescence ratio was 1.01 ± 0.043.

AAACCGGGAC gave a switch fluorescence ratio of 1.55 ± 0.15.

In the case of CGGCTTGGT, the switch fluorescence ratio is reported as 1.02 ± 0.015.

Work on GGGTTGACCC yielded a switch fluorescence ratio of 0.993 ± 0.024.

CGACTAAAAT was tested, and the switch fluorescence ratio was 1.013 ± 0.0066.

Sequence GGGCCCGGTT has a switch fluorescence ratio of 1.005 ± 0.0068.

GGAAGGGGCT showed a switch fluorescence ratio of 1.08 ± 0.12.

AGATATTGGC was tested, and the switch fluorescence ratio was 1.03 ± 0.11.

Work on TAATAGAAGT yielded a switch fluorescence ratio of 0.979 ± 0.052.

In the case of GAAAGATACC, the switch fluorescence ratio is reported as 1.03 ± 0.043.

In the case of ACTCGGGGGC, the switch fluorescence ratio is reported as 1.09 ± 0.23.

Sequence GGTGGGGCTT has a switch fluorescence ratio of 0.998 ± 0.025.

With GCTTGTTTTT the switch fluorescence ratio was 0.997 ± 0.018.

With GCTTGTTTGG the switch fluorescence ratio was 0.961 ± 0.013.

With CGCGGGGTCC the switch fluorescence ratio was 1.05 ± 0.048.

CTCTAAAAAG gave a switch fluorescence ratio of 1.06 ± 0.05.

In the case of GGTAGATATG, the switch fluorescence ratio is reported as 1.021 ± 0.0078.

TTGGTTCACC showed a switch fluorescence ratio of 0.955 ± 0.029.

Work on GGTCATGCGG yielded a switch fluorescence ratio of 1.01 ± 0.021.

TTGAGGCGGG gave a switch fluorescence ratio of 0.993 ± 0.045.

Sequence GGCCTTTATT has a switch fluorescence ratio of 1.01 ± 0.031.

ATAGTCACAT gave a switch fluorescence ratio of 1.02 ± 0.021.

Sequence CGGTTTGCAG has a switch fluorescence ratio of 0.972 ± 0.043.

For TTTTAGGCTG, the switch fluorescence ratio was 0.961 ± 0.027.

Sequence ACTTTGGCCC has a switch fluorescence ratio of 1.005 ± 1.1e-05.

CATGATGAGC was tested, and the switch fluorescence ratio was 0.9668 ± 0.0079.

GGAAATTGGG showed a switch fluorescence ratio of 0.994 ± 0.016.

Work on AATGTAAAGT yielded a switch fluorescence ratio of 1.001 ± 0.0047.

Work on GGCATTAATT yielded a switch fluorescence ratio of 1.01 ± 0.048.

With ATGTATAAAG the switch fluorescence ratio was 0.987 ± 0.03.

CGAAGGATTT showed a switch fluorescence ratio of 1.003 ± 0.0041.

TATGGAGAGG was tested, and the switch fluorescence ratio was 0.984 ± 0.015.

Sequence GGGGTTGTAG has a switch fluorescence ratio of 0.993 ± 0.047.

Sequence ATAAGGCTTG has a switch fluorescence ratio of 0.968 ± 0.03.

In the case of GATTAGGCGA, the switch fluorescence ratio is reported as 1.023 ± 0.0064.

For AGGGGCGAGC, the switch fluorescence ratio was 0.9616 ± 0.005.

With TGATAAAGGT the switch fluorescence ratio was 0.997 ± 0.015.

With AGTTTAATGT the switch fluorescence ratio was 1 ± 0.027.

TTGTATGGCA gave a switch fluorescence ratio of 0.973 ± 0.027.

In the case of GCCGCGTATA, the switch fluorescence ratio is reported as 1.43 ± 0.058.

CTTGCGGGCG was tested, and the switch fluorescence ratio was 0.982 ± 0.012.

In the case of TGTGATTTCG, the switch fluorescence ratio is reported as 0.945 ± 0.048.

Sequence TTTTTCTAAT has a switch fluorescence ratio of 1.03 ± 0.071.

ATGAAATGTT was tested, and the switch fluorescence ratio was 1.011 ± 0.0053.

Work on ATTAAGGTAG yielded a switch fluorescence ratio of 1 ± 0.014.

Sequence CATTTTCTAG has a switch fluorescence ratio of 1.03 ± 0.044.

For GGTAGGCTGC, the switch fluorescence ratio was 0.986 ± 0.018.

TTGCGAGGGC gave a switch fluorescence ratio of 1 ± 0.028.

AGGTTCACTA showed a switch fluorescence ratio of 1.01 ± 0.06.

CCTTTGGAGG showed a switch fluorescence ratio of 0.981 ± 0.016.

Sequence AGATTGATGC has a switch fluorescence ratio of 1.03 ± 0.03.

In the case of CGATACGGTG, the switch fluorescence ratio is reported as 1.07 ± 0.035.

Sequence TGTCTATCGG has a switch fluorescence ratio of 0.974 ± 0.014.

AAGTTGGAGT was tested, and the switch fluorescence ratio was 1.02 ± 0.027.

Sequence GGGAAATCAT has a switch fluorescence ratio of 0.997 ± 0.015.

CTCGCGACGA showed a switch fluorescence ratio of 1.06 ± 0.019.

Work on GGGGATCCCC yielded a switch fluorescence ratio of 1.03 ± 0.019.

CGTGGGCGGT was tested, and the switch fluorescence ratio was 0.9807 ± 0.0031.

GGGGAGACGA showed a switch fluorescence ratio of 1.04 ± 0.022.

Work on AGAGGGGAAT yielded a switch fluorescence ratio of 1.01 ± 0.023.

CAAAGAACTT showed a switch fluorescence ratio of 1.01 ± 0.018.

TTGGTTGAAA was tested, and the switch fluorescence ratio was 1.01 ± 0.013.

TTCGGGGGGT showed a switch fluorescence ratio of 1.02 ± 0.051.

GCAAAAGGGG was tested, and the switch fluorescence ratio was 0.977 ± 0.027.

Sequence ACGTTCTATA has a switch fluorescence ratio of 1.026 ± 0.0088.

For TACATCCGAG, the switch fluorescence ratio was 1.08 ± 0.029.

CGAGCTCCAT showed a switch fluorescence ratio of 1.015 ± 0.0054.

CCTGATAGCG was tested, and the switch fluorescence ratio was 1.05 ± 0.03.

With TTTTCGGTGC the switch fluorescence ratio was 1.06 ± 0.1.

In the case of CCGGCTGGTG, the switch fluorescence ratio is reported as 1.197 ± 0.0056.

TCGTGTGATG was tested, and the switch fluorescence ratio was 0.9686 ± 0.0049.

GGGAGGTATT gave a switch fluorescence ratio of 0.99676 ± 0.00098.

TGTGAGGCTT gave a switch fluorescence ratio of 1.03 ± 0.015.

With ACGGTGTGGC the switch fluorescence ratio was 1.03 ± 0.072.

In the case of GGGTTCTTTG, the switch fluorescence ratio is reported as 1.03 ± 0.064.

Work on TGTTGCTGGG yielded a switch fluorescence ratio of 1 ± 0.026.

Sequence ACTAACGGGG has a switch fluorescence ratio of 1.35 ± 0.084.

With ACTGGGGTCA the switch fluorescence ratio was 1 ± 0.03.

ATAGAAGGGG gave a switch fluorescence ratio of 1.08 ± 0.14.

For GGCGCAAGGA, the switch fluorescence ratio was 2.41 ± 1.9.

For CGAAGCTTTT, the switch fluorescence ratio was 1.089 ± 0.003.

CGGCATGGAG was tested, and the switch fluorescence ratio was 0.996 ± 0.025.

For TCTTAGGGAT, the switch fluorescence ratio was 1 ± 0.052.

In the case of GGAGGGGAGG, the switch fluorescence ratio is reported as 0.991 ± 0.029.

TGGTGGTTTT gave a switch fluorescence ratio of 1.03 ± 0.025.

CGCTTGGCTG gave a switch fluorescence ratio of 0.981 ± 0.051.

Work on TAAGGAAGTT yielded a switch fluorescence ratio of 1.009 ± 0.0096.

AGGTCGTGTT showed a switch fluorescence ratio of 0.992 ± 0.01.

CGGTTAAGGC gave a switch fluorescence ratio of 1.07 ± 0.017.

In the case of GTTTGTTTGT, the switch fluorescence ratio is reported as 0.995 ± 0.019.

TCATTGCTTT showed a switch fluorescence ratio of 1 ± 0.015.

GTTGGTAGGG showed a switch fluorescence ratio of 0.9979 ± 0.0099.

In the case of TGCTTTATCT, the switch fluorescence ratio is reported as 1.012 ± 0.0023.

Sequence CGGGTAACTT has a switch fluorescence ratio of 1.02 ± 0.046.

TCGTATTAAG showed a switch fluorescence ratio of 0.969 ± 0.046.

Sequence AGCCGAGTTC has a switch fluorescence ratio of 1.01 ± 0.049.

GCGAGTTCTA gave a switch fluorescence ratio of 0.963 ± 0.025.

GCTGGTACTG gave a switch fluorescence ratio of 0.986 ± 0.037.

In the case of AACGTTGTAC, the switch fluorescence ratio is reported as 1.51 ± 0.037.

Sequence ATTTCGGGGA has a switch fluorescence ratio of 0.997 ± 0.042.

Work on TAGGGGGAAC yielded a switch fluorescence ratio of 1.01 ± 0.022.

GGGACAGAGG showed a switch fluorescence ratio of 0.988 ± 0.0047.

TGTCTGAGGG gave a switch fluorescence ratio of 1 ± 0.013.

In the case of GGGGGGGAAT, the switch fluorescence ratio is reported as 1 ± 0.045.

Sequence GACGTACAAC has a switch fluorescence ratio of 1.619 ± 0.0099.

GCCTCTGGTG gave a switch fluorescence ratio of 1.33 ± 0.035.

TGAAAGAACT gave a switch fluorescence ratio of 1.16 ± 0.21.

CATGTCTCTC gave a switch fluorescence ratio of 1.02 ± 0.032.

With TATCGCTTGG the switch fluorescence ratio was 1 ± 0.018.
